Molecular target: Von Willebrand factor (VWF) (human) (UniProt P04275)
Assay: specific fVIII activity of the purified complex; heparin-Sepharose purified starting material, VWF 0.54 mg/ml and fVIII activity 38 U/ml (one-stage coagulation assay); mass ratio worked out with a cited specific activity of fVIII of ~5000 U/mg

Substance: blood coagulation factor VIII (fVIII) (natural protein)
- percentage mass ratio of fVIII to VWF: 1%

Source: PMC8005835
